From patent US20160011217A1 (NATIONAL CANCER CENTER, published 2016)

Target: T1, insoluble fibrin (fibrin plate, fibrin clot or tissue fibrin; species not stated for the experiment) (Homo sapiens (Human), UniProt P02671 36-630; P02675 45-491; P02679 27-433, Insoluble polymer of (alpha-beta-gamma)2 fibrin monomers, disulfide-bridged and possibly cross-linked by factor XIII. The letters give one copy of each chain only.)
T1 sequence (alpha): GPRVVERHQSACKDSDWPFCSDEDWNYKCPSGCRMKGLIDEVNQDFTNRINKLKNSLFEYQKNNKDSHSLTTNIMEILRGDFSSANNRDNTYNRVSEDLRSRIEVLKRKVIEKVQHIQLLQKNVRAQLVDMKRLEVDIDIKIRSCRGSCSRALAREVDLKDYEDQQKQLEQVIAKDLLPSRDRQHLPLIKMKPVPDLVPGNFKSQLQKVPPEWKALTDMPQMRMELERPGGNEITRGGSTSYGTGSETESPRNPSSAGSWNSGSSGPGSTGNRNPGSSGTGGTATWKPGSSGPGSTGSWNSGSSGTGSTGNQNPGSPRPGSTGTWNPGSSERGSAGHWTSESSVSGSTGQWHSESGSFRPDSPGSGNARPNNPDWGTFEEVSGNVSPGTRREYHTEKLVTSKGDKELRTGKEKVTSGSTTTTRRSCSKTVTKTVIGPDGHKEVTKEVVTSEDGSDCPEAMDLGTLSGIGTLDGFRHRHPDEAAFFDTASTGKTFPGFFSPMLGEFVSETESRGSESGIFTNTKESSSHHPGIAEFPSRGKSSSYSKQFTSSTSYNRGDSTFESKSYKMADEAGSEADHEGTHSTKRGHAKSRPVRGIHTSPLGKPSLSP
T1 sequence (beta): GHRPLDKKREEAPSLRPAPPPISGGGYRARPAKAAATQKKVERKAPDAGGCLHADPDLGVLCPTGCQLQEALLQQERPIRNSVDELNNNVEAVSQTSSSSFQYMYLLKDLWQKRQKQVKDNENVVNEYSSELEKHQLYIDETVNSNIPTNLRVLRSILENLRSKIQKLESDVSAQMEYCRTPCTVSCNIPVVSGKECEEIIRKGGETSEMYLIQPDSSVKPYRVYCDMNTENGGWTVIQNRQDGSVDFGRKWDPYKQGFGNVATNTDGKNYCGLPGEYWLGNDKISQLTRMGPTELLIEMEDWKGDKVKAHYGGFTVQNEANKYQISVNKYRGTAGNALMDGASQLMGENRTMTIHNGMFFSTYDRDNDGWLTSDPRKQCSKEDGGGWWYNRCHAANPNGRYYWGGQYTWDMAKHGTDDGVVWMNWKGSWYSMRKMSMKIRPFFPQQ
T1 sequence (gamma): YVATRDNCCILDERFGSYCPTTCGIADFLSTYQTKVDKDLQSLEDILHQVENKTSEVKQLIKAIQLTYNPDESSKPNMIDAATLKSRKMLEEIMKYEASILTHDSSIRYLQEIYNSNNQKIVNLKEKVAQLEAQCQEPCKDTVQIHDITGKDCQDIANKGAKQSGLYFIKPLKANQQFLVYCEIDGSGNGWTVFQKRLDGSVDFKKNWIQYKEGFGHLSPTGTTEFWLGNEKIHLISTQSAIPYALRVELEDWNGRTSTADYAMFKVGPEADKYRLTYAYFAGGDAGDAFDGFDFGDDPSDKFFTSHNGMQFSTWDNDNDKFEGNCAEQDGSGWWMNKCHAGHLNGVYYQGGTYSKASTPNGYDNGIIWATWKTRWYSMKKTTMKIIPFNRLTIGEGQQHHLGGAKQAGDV
Assay: ELISA, fibrin plate against fibrinogen plate, antibody at 10 µg/mL, absorbance at 492 nm
Experimental: Each of the antibody solutions (100 μL each) at 10 μg/mL was added to the fibrin plate and the fibrinogen plate, and allowed to stand at room temperature for 1 hour. After washing with TBS-T, Bethyl Anti-Human IgG-HRP (×1000 dilution) or Bethyl Anti-Mouse IgG-HRP (×10000 dilution) was added as a secondary antibody. Then, after washing with TBS-T, colorimetry was conducted with OPD for 10 minutes, and measurement was conducted at an absorption wavelength of 492 nm.

B1: Fib-0355 antibody (monoclonal antibody produced by hybridoma Fib-0355) (antibody, V domains shown)
VH: GPELKKPGETVKISCKASGYTFTNYGMNWVKQAPGKGLKWMGWINTNTGEPTYAEEFKGRFAFSLETSASTAYLQINNLKNEDTATYFCARLLDYWGQGTTLTVSS
VL: PSSLAVSAGEKVTMSCKSSQSVLYSSNQKNYLAWYQQKPGQSPKLLIYWASTRESGVPDRFTGSGSGTDFTLTISSVQAEDLAVYYCQQYLSSYTFGG
notes: Mouse hybridoma monoclonal antibody, detected with anti-mouse IgG-HRP; also called anti-β chain antibody
  ratio of the affinity for insoluble fibrin to the affinity for fibrinogen (absorbance at 492 nm): 13 times
